Usually Kd stands for a measure of binding affinity in units of concentration. Read a low Kd as a tighter complex.

Results on two molecules are retold here after PMC4775424 (Structure (London, England : 1993), 2016).

For one assay, the system named is human ORC1 BAH domain. The conditions noted are these: human version; ref Kuo et al., 2012; cited from earlier work.
The subject of another assay is mouse ORC1 BAH domain. The settings on record: mouse version; four-residue aromatic cage; ref Kuo et al., 2012; cited from earlier work.
The target of assay [1] is H3 peptide dimethylated at K4. Nature of the assay: ITC. For orientation: Isothermal titration calorimetry measures the heat released or taken up as one component is titrated into another.
The target in assay [2] is H3 peptide monomethylated at K4. Put plainly: ITC.
The target of assay [3] is unmodified H3(1-15) peptide. Nature of the assay: ITC.

Entries after “also recorded” stand apart in the source; their conditions may differ.

For the molecule “H4K20me2: histone mark H4K20me2 / H4K20me2 peptide bound by metazoan ORC1 BAH domains”, the figures for the “recognition by ORC1 BAH domain” value in the assay with human ORC1 BAH domain and with mouse ORC1 BAH domain were “specifically recognize” and “can use a four-residue aromatic cage to recognize the methyllysine of H4K20me2; also recorded: specifically recognize”, respectively.

B1: Arabidopsis thaliana ORC1b BAH-PHD cassette (domain or fragment)
chain: SETIKKTKKKKRVYYNKVEFDETEFEIGDDVYVKRREDSNSDEEEDPEIEDCQICFKSDTNIMIECDDCLGGFHLKCLKPPLKEVPEGDWICQFCEVKKSGQSQTLDLPKPPEGKKLARTMREKLLSGDLWAARIDKLWKEVDDGVYWIRARWYMIPEETVSGRQPHNLKRELYLTNDFADIEMECILRHCSVKCPKEFSKASNDGDDVFLCEYEYDVHWRSFKRLAELADG
Take B1: the fold decrease of the binding against the unmodified H3 peptide amounted to 10 fold in assay [1] and 4 fold in assay [2]. In assay [3], this molecule had a Kd of 3 µM.
